T1: nrgECD (amino acids Ser2-Lys246 of neuregulin beta 1) (Homo sapiens, UniProt Q02297)
T1 construct: Ser2-Lys246 of neuregulin beta 1; purchased R&D Sciences or SinoBiologicals
T1 sequence (Q02297 2-246 isoform Q02297-6): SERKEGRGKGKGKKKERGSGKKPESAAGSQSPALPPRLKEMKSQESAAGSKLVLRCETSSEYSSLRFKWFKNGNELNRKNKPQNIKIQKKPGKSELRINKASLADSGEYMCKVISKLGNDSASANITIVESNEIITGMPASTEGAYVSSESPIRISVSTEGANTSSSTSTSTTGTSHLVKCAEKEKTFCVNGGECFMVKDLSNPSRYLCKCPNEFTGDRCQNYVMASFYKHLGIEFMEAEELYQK

T2: nrgEGF (amino acids Thr176-Lys246 of neuregulin-beta 1) (Homo sapiens, UniProt Q02297)
T2 construct: Thr176-Lys246 of neuregulin-beta 1; purchased R&D Sciences or SinoBiologicals
T2 sequence (Q02297 176-246 isoform Q02297-6): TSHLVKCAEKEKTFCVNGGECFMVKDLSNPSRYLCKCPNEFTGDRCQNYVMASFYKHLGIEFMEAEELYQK

T3: VEGF (Homo sapiens, UniProt P15692)
T3 construct: purchased R&D Systems
T3 sequence (P15692 27-191 isoform P15692-4): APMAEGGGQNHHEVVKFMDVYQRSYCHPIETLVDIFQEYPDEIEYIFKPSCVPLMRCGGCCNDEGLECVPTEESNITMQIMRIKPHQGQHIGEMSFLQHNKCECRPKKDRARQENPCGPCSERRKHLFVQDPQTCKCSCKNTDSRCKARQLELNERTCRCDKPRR

B1: IGFBP3-erbB4-Fc: ErbB4-GS-IGFBP3-gly 3 linker-Fc, SEQ ID NO: 22 (protein)
chain: MSEVPVARVWLVLLLLTVQVGVTAGVQPSDSQSVCAGTENKLSSLSDLEQQYRALRKYYENCEVVMGNLEITSIEHNRDLSFLRSVREVTGYVLVALNQFRYLPLENLRIIRGTKLYEDRYALAIFLNYRKDGNFGLQELGLKNLTEILNGGVYVDQNKFLCYADTIHWQDIVRNPWPSNLTLVSTNGSSGCGRCHKSCTGRCWGPTENHCQTLTRTVGGGGSGGGGSGGGGSGGGGSGGGGGASSAGLGPVVRCEPCDARALAQCAPPPAVCAELVREPGCGCCLTCALSEGQPCGIYTERCGSGLRCQPSPDEARPLQALLDGRGLCVNASAVSKGHAKDSQRYKVDYESQSTDTQNFSSESKRETEYGPCRREMEDTLNHLKFLNVLSPRGVHIPNCDKKGFYKKKQCRPSKGRKRGFCWCVDKYGQPLPGYTTKGKEDVHCYSMQSKVECPPCPAPPVAGPSVFLFPPKPKDQLMISRTPEVTCVVVDVSHEDPEVKFNWYVDGVEVHNAKTKPREEQYNSTYRVVSVLTVLHQDWLNGKEYKCKVSNKGLPSSIEKTISKAKGQPREPQVYTLPPSREEMTKNQVSLTCLVKGFYPSDIAVEWESNGQPENNYKTTPPVLDSDGSFFLYSKLTVDKSRWQQGNVFSCSVMHEGLHNHYTQKSLSLSPGK
B2: chimera A: IGFBP3 with IGFBP3 linker deletion 1-gly 3 linker-v1v2-Fc, SEQ ID NO: 14 (protein)
chain: MSEVPVARVWLVLLLLTVQVGVTAGGASSAGLGPVVRCEPCDARALAQCAPPPAVCAELVREPGCGCCLTCALSEGQPCGIYTERCGSGLRCQPSPDEARPLQALLDGRGLCVNASAVSKGHAKDSQRYKVDYESQSTDTQNFSSESKRETEYGPCRREMEDTLNHLKFLNVLSPRGVHIPNCDKKGFYKKKQCRPSKGRKRGFCWCVDKYGQPLPGYTTKGKEDVHCYSMQSKAPPAPGNASESEEDRSAGIYIFISDTGRPFVEMYSEIPEIIHMTEGRELVIPCRVTSPNITVTLKKFPLDTLIPDGKRIIWDSRKGFIISNATYKEIGLLTCEATVNGHLYKTNYLTHRQGYRIYDVVLSPSHGIELSVGEKLVLNCTARTELNVGIDFNWEYPSSKHQHKKLVNRDLKTQSGSEMKKFLSTLTIDGVTRSDQGLYTCAASSGLMTKKNSTFVRVHEKVECPPCPAPPVAGPSVFLFPPKPKDQLMISRTPEVTCVVVDVSHEDPEVKFNWYVDGVEVHNAKTKPREEQYNSTYRVVSVLTVLHQDWLNGKEYKCKVSNKGLPSSIEKTISKAKGQPREPQVYTLPPSREEMTKNQVSLTCLVKGFYPSDIAVEWESNGQPENNYKTTPPVLDSDGSFFLYSKLTVDKSRWQQGNVFSCSVMHEGLHNHYTQKSLSLSPGK
B3: Chimera B: IGFBP3 with IGFBP3 linker deletion 1-GS 16 linker-v1v2-Fc, SEQ ID NO: 19 (protein)
chain: MSEVPVARVWLVLLLLTVQVGVTAGGASSAGLGPVVRCEPCDARALAQCAPPPAVCAELVREPGCGCCLTCALSEGQPCGIYTERCGSGLRCQPSPDEARPLQALLDGRGLCVNASAVSKGHAKDSQRYKVDYESQSTDTQNFSSESKRETEYGPCRREMEDTLNHLKFLNVLSPRGVHIPNCDKKGFYKKKQCRPSKGRKRGFCWCVDKYGQPLPGYTTKGKEDVHCYSMQSKGGGGSGGGGSGGGGSGIYIFISDTGRPFVEMYSEIPEIIHMTEGRELVIPCRVTSPNITVTLKKFPLDTLIPDGKRIIWDSRKGFIISNATYKEIGLLTCEATVNGHLYKTNYLTHRQGYRIYDVVLSPSHGIELSVGEKLVLNCTARTELNVGIDFNWEYPSSKHQHKKLVNRDLKTQSGSEMKKFLSTLTIDGVTRSDQGLYTCAASSGLMTKKNSTFVRVHEKVECPPCPAPPVAGPSVFLFPPKPKDQLMISRTPEVTCVVVDVSHEDPEVKFNWYVDGVEVHNAKTKPREEQYNSTYRVVSVLTVLHQDWLNGKEYKCKVSNKGLPSSIEKTISKAKGQPREPQVYTLPPSREEMTKNQVSLTCLVKGFYPSDIAVEWESNGQPENNYKTTPPVLDSDGSFFLYSKLTVDKSRWQQGNVFSCSVMHEGLHNHYTQKSLSLSPGK

What was measured:
[1] = target: T1, nrgECD (amino acids Ser2-Lys246 of neuregulin beta 1); assay: Biacore binding to nrgECD; conditions: immobilized nrgECD
Experimental: (§1) Biacore binding was performed at David Myszka's laboratory at the University of Utah or at the Genomic Research Center at Academia Sinica. Surfaces of binding protein chimera were made via chemical immobilization on a CM4 chip using standard amine coupling chemistry. […] Excess surface carboxyl activated sites on all four flow cells was blocked using the doubly positively charged species ethylenediamine. Binding experiments (but not immobilizations) in HBS-P (10 mM HEPES pH 7.4, 150 mM NaCl, 0.05% P20), The HBS-P was supplemented with BSA at 0.2 mg/mL, or HBS-P was supplemented with 500 mM NaCl (650 mM NaCl, final concentration). Analytes were also reconstituted in the corresponding buffer. All experiments were performed at 25° C. 1/150 dilutions of phosphoric acid were used to regenerate IGFBP3-Fc surfaces and a sequence of 3 M MgCl2 followed by 5 M GuCl was used to regenerate surfaces immobilized with growth factor. Dissociation constants reported below used immobilized binding protein unless noted. Differences between binding constants may be expected between growth factor immobilization and chimera immobilization.
(§2) In this example, erbB4 domain 1 was attached to the N-terminus of the recombinant IGFBP3-Fc or the recombinant IGFBP3-v1v2-Fc.

[2] = target: T2, nrgEGF (amino acids Thr176-Lys246 of neuregulin-beta 1); assay: Biacore binding to nrgEGF
Experimental: as §1, §2

IGF-1 and VEGF = assay: Competition binding ELISA with biotinylated IGF-1 or biotinylated VEGF; conditions: competitive inhibition data, FIG. 8 and FIG. 9
Experimental: (§3) Plates were coated with goat anti-human Fc antibody, blocked and then incubated with chimera as in the Fc ELISA. Biotinylated IGF-1 (GroPep) or VEGF-Biotin (R&D Systems VEGF biotinylated with sulfo-NHS-LC-biotin as per instructions (Pierce) was added for 2 hours followed by streptavidin-HRP (Jackson Immunoresearch) for 30 minutes. Chromogenic development with tetramethyl benzidine was performed as described above.
ELISA plates were coated with 0.5 μg/ml growth factor (IGF-1, IGF-2, VEGF, etc.) in PBS overnight and blocked as described above. After overnight incubation with chimera, chimera binding was detected with anti-human Fc-HRP and development with tetramethyl benzidine as described above.
Binding specificity was also studied by competition binding assays using biotinylated IGF-1 (IGF-1-bio) or biotinylated VEGF (VEGF-bio) in the growth factor ELISA assay.

HUVEC cells = assay: HUVEC proliferation assay; assay type: cell-based; conditions: for inhibition of VEGF-induced proliferation of HUVEC cells: FIG. 6, FIG. 13
Experimental: (§4) MCF-7 cells (a breast cancer cell line) were maintained in MEM (GIBCO) plus insulin and NEAA and 10% FBS (Hyclone).
(§5) For the proliferation assay, cells except for HUVEC were seeded at a density of 1,000 to 6,000 in 96 wells in an assay buffer of DMEM/F12 plus 0.2% BSA and 10 ug/ml transferrin. Chemical inhibitors were added after 16-20 hours after plating; IGF-1 or other growth factors or test chimeras in assay buffer were added at the time of plating or 16-20 hours after plating. 5,000 HUVEC ells were plated in poly-L-lysine coated 96 wells in M199 with 1%/FBS and HEPES. After 3 to 4 days of culture, growth was determined by incubating cells with Alamar blue for 4 to 6 hours and then the fluorescence (RFU) at 544/590 nm was read. For long term proliferation assays, cells were plated in the growth media with 5% or 10% FBS at densities of 500 to 10,000 cells per cm^2 growth area and grown for 7 to 21 days. Inhibitors and effectors were added 1-4 days after plating. Cells were exposed to cisplatin or gemcitabine for two days. Medium was renewed twice weekly. At completion, cells were fixed and then stained with Giemsa.
Growth factor synergism can also be observed in the proliferation of HUVEC cells.

[3] = test system: MCF-7 breast cancer cells; assay: MCF-7 proliferation assay; assay type: cell-based; conditions: FIG. 5
Experimental: as §4, §5
We next examined the effect of 56662 (BP3/Fc) on the proliferation induced by growth factors that interacted with the IGFBP3. The proliferation of MCF-7 breast cancer cells was induced in serum-free medium by individual growth factors like IGF-1, IGF-2, EGF, TGF-a, Nrgbx, b-FGF, and amphiregulin (FIG. 1).

hep3B cells = assay: hep3B proliferation assay; assay type: cell-based, human; conditions: FIG. 22A
Experimental: as §5
The human hepatoma cell line hep3B could be stimulated by many growth factors including IGF-1, IGF-2, HGF, bFGF, VEGF, and neuregulin.

VEGF = target: T3, VEGF; assay: Stability: VEGF binding remaining after overnight incubation; assay type: physicochemical; conditions: experiment 3-192
Experimental: as §3
To test the stability of the present chimeras, some purified chimeras (see, Table 4) were incubated with PBS or a conditioned medium from the MCF-7 cell line overnight at 37° C. and PBS overnight at 4° C. The IGF-1 binding and VEGF binding were measured using the biotinylated IGF-1 and VEGF.

| Molecule | Kd [1] [nM] | Kd [2] [nM] | simultaneous binding of IGF and VEGF (IGF-1 and VEGF) | inhibition of VEGF-induced proliferation of HUVEC cells (HUVEC cells) | inhibition of HUVEC proliferation stimulated by IGF-1, bFGF, HGF, VEGF, and combinations (HUVEC cells; FIG. 14) | inhibition of IGF-1-induced proliferation of MCF-7, compared to 56662 and chimera B [3] | rescue by HGF, bFGF, or IGF in hep3b cells treated with erlotinib (hep3B cells) | VEGF binding remaining over control, mcf7 (VEGF; MCF-7 conditioned medium overnight at 37° C.) [%] | VEGF binding remaining over control, 37 con (VEGF; PBS overnight at 37° C.) [%] |
| --- | --- | --- | --- | --- | --- | --- | --- | --- | --- |
| B1 | 0.004 | 6 | – | – | – | – | – | – | – |
| B2 | – | – | could bind simultaneously | potent inhibition | inhibited | a smaller EC50 and a higher maximal inhibition | decreased the rescue | – | – |
| B3 | – | – | – | potent inhibition | – | – | – | 73 | 101 |
